For experiment [1], the target named is T1, CD117 (Homo sapiens, UniProt P10721). The experiment is described as follows: In vitro stem cell factor (SCF)-dependent cell proliferation assay (neutral vs antagonist). The class given is cell-based. Further details: endogenous in cells; host or cells: CD34+ cells dependent on SCF. The text has this: Neutral antibodies can be identified using, for example, an in in vitro stem cell factor (SCF)-dependent cell proliferation assay. In an SCF dependent cell proliferation assay, a neutral CD117 antibody will not kill CD34+ cells that are dependent on SCF to divide, as a neutral antibody will not block SCF from binding to CD117 such as to inhibit CD117 activity.

Experiment [2] has as its target T1, CD117. As to the kind of experiment: Bio-layer interferometry (BLI) binding. The text has this:
In certain embodiments, an anti-CD117 antibody, or antigen binding fragment thereof, has a certain dissociation rate which is particularly advantageous when used as a part of a conjugate. For example, an anti-CD117 antibody has, in certain embodiments, an off rate constant (Koff) for human CD117 and/or rhesus CD117 of 1×10^−2 to 1×10^−3, 1×10^−3 to 1×10^−4, […] or 1×10^−7 to 1×10^−8, as measured by bio-layer interferometry (BLI). In some embodiments, the antibody or antigen-binding fragment thereof binds CD117 (e.g., human CD117 and/or rhesus CD117) with a KD of about 100 nM or less, about 90 nM or less, about 80 nM or less, about 70 nM or less, about 60 nM or less, about 50 nM or less, about 40 nM or less, about 30 nM or less, about 20 nM or less, about 10 nM or less, about 8 nM or less, about 6 nM or less, about 4 nM or less, about 2 nM or less, about 1 nM or less as determined by a Bio-Layer Interferometry (BLI) assay.
Thus, in certain embodiments, an anti-CD117 antibody comprises a heavy chain comprising a CDR set (CDR1, CDR2, and CDR3) as set forth in SEQ ID Nos: 245, 246, and 247, and a light chain comprising a CDR set as set forth in SEQ ID Nos: 248, 249, and […], internalizes in cells expressing CD117, and has a koff rate of 5×10^−4 s^−1 or less as measured by BLI.
For orientation: In BLI a coated tip is dipped into the sample, and binding shifts an interference pattern.

T1 sequence (P10721 26-976): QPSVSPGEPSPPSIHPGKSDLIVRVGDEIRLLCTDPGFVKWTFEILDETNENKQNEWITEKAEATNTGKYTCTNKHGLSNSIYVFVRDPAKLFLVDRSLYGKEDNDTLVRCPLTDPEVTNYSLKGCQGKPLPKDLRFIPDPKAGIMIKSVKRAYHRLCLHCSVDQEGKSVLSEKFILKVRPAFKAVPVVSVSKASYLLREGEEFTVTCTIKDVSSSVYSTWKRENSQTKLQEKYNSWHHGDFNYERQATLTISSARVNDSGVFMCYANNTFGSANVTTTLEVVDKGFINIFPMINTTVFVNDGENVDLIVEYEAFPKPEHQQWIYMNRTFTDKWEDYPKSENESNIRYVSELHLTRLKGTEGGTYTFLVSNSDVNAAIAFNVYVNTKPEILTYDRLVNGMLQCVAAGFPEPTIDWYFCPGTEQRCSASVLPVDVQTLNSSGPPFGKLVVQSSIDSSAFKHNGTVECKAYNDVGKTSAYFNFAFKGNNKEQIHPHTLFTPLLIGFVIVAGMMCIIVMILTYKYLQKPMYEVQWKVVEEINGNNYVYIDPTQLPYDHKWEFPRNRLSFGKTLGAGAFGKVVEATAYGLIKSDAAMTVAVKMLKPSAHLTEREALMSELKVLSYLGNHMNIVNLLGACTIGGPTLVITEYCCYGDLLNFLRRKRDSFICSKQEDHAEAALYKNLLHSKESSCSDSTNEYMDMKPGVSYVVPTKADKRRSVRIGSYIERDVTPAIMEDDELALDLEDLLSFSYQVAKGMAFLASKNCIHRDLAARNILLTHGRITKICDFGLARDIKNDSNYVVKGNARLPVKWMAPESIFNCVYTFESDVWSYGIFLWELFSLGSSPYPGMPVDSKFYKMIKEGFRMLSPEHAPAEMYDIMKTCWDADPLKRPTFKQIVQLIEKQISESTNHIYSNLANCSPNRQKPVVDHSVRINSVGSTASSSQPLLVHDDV

B1: Ab61: anti-CD117 antibody, VH SEQ ID NO: 69, VL SEQ ID NO: 70 (antibody, V domains shown)
VH: EVQLLESGGGLVQPGGSLRLSCAASGFTFSSYVMIWVRQAPGKGLEWVSSISGDSVTTYYADSVKGRFTISRDNSKNTLYLQMNSLRAEDTAVYYCAKGPPTYHTNYYYMDVWGKGTTVTVSS
VL: DIQMTQSPSSVSASVGDRVTITCRASQGISSWLAWYQQKPGKAPKLLIYAASSLQSGVPSRFSGSGSGTDFTLTISSLQPEDFATYYCQQTNSFPYTFGGGTKVEIK
B1: the “effect on CD117 activity (neutral or antagonist antibody)” value (“effect on CD117 activity” below) in experiment [1] is listed as “neutral”.

B2: Ab249: human anti-CD117 antibody derived from CK6, VH SEQ ID NO: 238, VL SEQ ID NO: 242 (antibody, V domains shown)
VH: EVQLVQSGAEVKKPGESLKISCKGSGYRFTTSWIGWVRQMPGKGLEWMGIIYPGDSDTRYSPSFQGQVTISADKSISTAYLQWSSLKASDTAMYYCARHGLGYNGYEGAFDIWGQGTLVTVSS
VL: DIQMTQSPSSLSASVGDRVTITCRASQGIGSALAWYQQKPGKAPKLLIYDASNLETGVPSRFSGSGSGTDFTLTISSLQPEDFATYYCQQLNGYPLTFGQGTRLEIK
With B2, the “binding characteristics over CK6” value in experiment [2] is “improved binding characteristics”.

B3: Ab54: anti-CD117 antibody, VH SEQ ID NO: 29, VL SEQ ID NO: 30 (antibody, V domains shown)
VH: QVQLVQSGAEVKKPGSSVKVSCKASGGTFSSYAISWVRQAPGQGLEWMGGIIPIFGTANYAQKFQGRVTITADESTSTAYMELSSLRSEDTAVYYCARGGLDTDEFDLWGRGTLVTVSS
VL: DIQMTQSPSSLSASVGDRVTITCRASQSINSYLNWYQQKPGKAPKLLIYAASSLQSGVPSRFSGSGSGTDFTLTISSLQPEDFATYYCQQGVSDITFGGGTKVEIK
On to B3, for which, in experiment [1], the “effect on CD117 activity” value was “Antagonist”.

B4: Ab56: anti-CD117 antibody, VH SEQ ID NO: 39, VL SEQ ID NO: 40 (antibody, V domains shown)
VH: QVQLVQSGAEVKKPGSSVKVSCKASGGTFSLYAISWVRQAPGQGLEWMGGIIPAFGTANYAQKFQGRVTITADESTSTAYMELSSLRSEDTAVYYCARGGLDTDEFDLWGRGTLVTVSS
VL: DIQMTQSPSSLSASVGDRVTITCRASQSINSYLNWYQQKPGKAPKLLIYAASSLQSGVPSRFSGSGSGTDFTLTISSLQPEDFATYYCQQGVSDITFGGGTKVEIK
On to B4, for which the “effect on CD117 activity” value in experiment [1] is reported as “Antagonist”.

B5: Ab55: anti-CD117 antibody, VH SEQ ID NO: 19, VL SEQ ID NO: 20 (antibody, V domains shown)
VH: QVQLVQSGAEVKKPGSSVKVSCKASGGTFRIYAISWVRQAPGQGLEWMGGIIPDFGVANYAQKFQGRVTITADESTSTAYMELSSLRSEDTAVYYCARGGLDTDEFDLWGRGTLVTVSS
VL: DIQMTQSPSSLSASVGDRVTITCRASQSINSYLNWYQQKPGKAPKLLIYAASSLQSGVPSRFSGSGSGTDFTLTISSLQPEDFATYYCQQGVSDITFGGGTKVEIK
Consider B5, for which the “effect on CD117 activity” value in experiment [1] is given as “Antagonist”.

B6: Ab57: anti-CD117 antibody, VH SEQ ID NO: 49, VL SEQ ID NO: 50 (antibody, V domains shown)
VH: QVQLVQSGAEVKKPGSSVKVSCKASGGTFSLYAISWVRQAPGQGLEWMGGIIPHFGLANYAQKFQGRVTITADESTSTAYMELSSLRSEDTAVYYCARGGLDTDEFDLWGRGTLVTVSS
VL: DIQMTQSPSSLSASVGDRVTITCRASQSINSYLNWYQQKPGKAPKLLIYAASSLQSGVPSRFSGSGSGTDFTLTISSLQPEDFATYYCQQGVSDITFGGGTKVEIK
Regarding B6, the “effect on CD117 activity” value in experiment [1] is given as “Antagonist”.
